Assay results: paper PMC3517540, “Versatile Membrane Deformation Potential of Activated Pacsin” (PLoS ONE, 2012)

Columns and labels:
[1] = target: T1, Human full-length pacsin-1 (human, UniProt Q9BY11 1-444); assay: pull-down; GST-PRD baits on GST SpinTrap resin, purified pacsin-1 prey 2 h at 4°C; 25 mM Tris-Cl pH 7.5, 100 mM NaCl; eluted with 10 mM glutathione; SDS-PAGE and Coomassie staining; details: both partners purified
T1 construct: pacsin-1 (syndapin-1), human, full length; The His6-SUMO moiety was cleavable with Ulp-1; also called pacsin isoform 1; syndapin; source: modified pET28a expression plasmid, purified as described previously [27], [35]

[2] = target: T1, Human full-length pacsin-1; assay: SEC; pacsin-1 (40 µM) and GST-PRD (80 µM) incubated for 15 min, then size-exclusion chromatography; fractions analysed by SDS-PAGE and Coomassie staining; details: both partners purified

T1 sequence (Q9BY11 whole entry, canonical isoform): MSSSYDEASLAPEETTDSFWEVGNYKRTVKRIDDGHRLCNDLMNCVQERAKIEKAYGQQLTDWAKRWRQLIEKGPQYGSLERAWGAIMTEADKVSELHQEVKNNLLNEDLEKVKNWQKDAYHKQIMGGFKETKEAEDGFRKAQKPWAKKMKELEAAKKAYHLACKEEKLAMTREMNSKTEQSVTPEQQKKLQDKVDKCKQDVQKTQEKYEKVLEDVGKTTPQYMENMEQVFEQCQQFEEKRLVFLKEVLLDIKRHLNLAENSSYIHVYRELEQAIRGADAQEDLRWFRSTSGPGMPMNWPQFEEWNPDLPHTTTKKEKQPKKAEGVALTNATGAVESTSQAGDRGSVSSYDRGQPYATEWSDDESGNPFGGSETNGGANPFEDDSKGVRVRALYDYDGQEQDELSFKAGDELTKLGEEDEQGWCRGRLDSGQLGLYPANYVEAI

| binding result [1] | binding result [2] | Binder |
| --- | --- | --- |
| binds | – | GST-PRD^trunc1 (mouse dynamin-1 PRD aa747-810 fused to GST) (domain or fragment, UniProt P39053 747-810, looked up, dynamin-1 PRD, mouse, aa747-810; also called tr1; source: purified as GST fusion protein (GSTrap, Superdex 200 SEC)) TTTVSTPMPPPVDDSWLQVQSVPAGRRSPTSSPTPQRRAPAVPPARPGSRGPAPGPPPAGSALG |
| – | binds | Mouse dynamin-1 proline-rich domain (residues 747-842) fused to GST (domain or fragment, UniProt P39053 747-842, looked up, dynamin-1 proline-rich domain (PRD), mouse, residues 747-842; 100% identical to the human dynamin-1 PRD; Construct from the De Camilli laboratory; also called GST-PRD; PRD^wt; source: expression vector pGEX-6P-1, purified (GSTrap, Superdex 200 SEC)) TTTVSTPMPPPVDDSWLQVQSVPAGRRSPTSSPTPQRRAPAVPPARPGSRGPAPGPPPAGSALGGAPPVPSRPGASPDPFGPPPQVPSRPNRAPPG |
